This is an account of results in the nanobody polyreactivity screen of Harvey et al. (2022).

This series in a line: yeast display, Sf9 membrane polyspecificity reagent, FACS + sequencing; frameworks hold sequencing errors. In a few lines:
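Galactose induction of a Saccharomyces cerevisiae BJ5465 synthetic nanobody display library ran 36–48 hours. The cells were then stained for 1 hour at 4 °C with 10% biotinylated, detergent-solubilized Sf9 membrane reagent, pulled down on streptavidin microbeads and FACS-sorted into low and high (top ~1%) gates on expression and reagent-binding fluorescence. Labels for polyreactivity follow the gate of origin.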
As for “QVQLVESGGGLVQAGGSLRLSCAASGRIFYRYDMGWYRQAPGKERELVAAISSGGNTNYADSVKGRFTISRDNAKNTVYLQMNCLKPEDTAVYYCAKRYRSYQGSSRQGNYGYWGQGTQVSVSS”, the “polyreactivity (PSR sort gate)” value is on record as “high polyreactivity”.
For the sequence “QVQLVESGGGLVQAGGSLRLSCAASGYIFLAYAMGWYRQAPGKERELVADNTYADSVKGRFTISRDNAKNTVYLQMNSLKPEDPAVYYCNADEVYDEYSYDYWGQGTQVTVSS”, the “polyreactivity (PSR sort gate)” value was “low polyreactivity”.
In the case of “QDQLVESGGGLVQAGGSLRLSCAASGRILASYAMGWYRQAPGKERELVAAISLSGGSTYYADSVKGRFTISRDNAKNTVYLQMNSLKPEDTAVTYCAAKYPQKTPVNSYGNSFYYWGQGTQVTGSS” it was “low polyreactivity”; in that of “QVQLVESRGGLVQAGGSLRLSFAASGFTFGSYSMVWYRQAPGKERELVADITRRGDNTYYADSVKGRFTISRDNAKNTVYLQMNSLKPEDSAVYYCNAAKGGRYPDYDYWGQGTQVTVSS”, “high polyreactivity”.
In the case of “QVQLVESGVGLVQAGGSLSLSCAASGSTFYKYTMGWYRQAPGKESELVAAISGSGTTTYYADSVKGRFTISRDYAKNTVFLQINSLKPEDTAVYYCAAETYSPDREYGYWGLGTQVTVSS” it was “high polyreactivity”; in that of “QVQLVESGGGLVQAGGSLRVSCAASGFISGYYTMRWYRQAPGKEWELVAVINSGGSTYYADSVKGRFTISRDNAKNTVYLQMNSLKPEDTAVYYCAKLGGKYSRYYYWGQGTQVTVSS”, “low polyreactivity”.
For the sequence “QVQLVESGGGLVQAGGSLRLSCAASGRIFDTNAMGWYRQAPGKERELVAAISSSGGRTYYADSVKGRFTISRDNAKNTVYLQMNSLRPEDTAVYYCARVPITKDQYSHYYYWGQGTQVTVSS”, the “polyreactivity (PSR sort gate)” value is on record as “high polyreactivity”.
On to “QVQLVESGGGLVQAGGSLRLSCAASGRIFYANTMGWYRKATGKERELVAAISSGGSTTYADSVKGRFTISRENAKNTVYLQMNSLKPEDPAVYYCATNTWYHYQRMYYWGQGTQVTVSS”, for which the “polyreactivity (PSR sort gate)” value was “high polyreactivity”.
In the case of “QVQLVDSGGGLVQAGGSLSLSCAASGNIFDYNVMGWYRQAPGKERELVAAITASAVRTYYADSVKGRFTISRDNAKNTVYLQMNSLKPEDIAVYYCGKRRIVRQRSYYYWGQGTQVTVSS” it was “low polyreactivity”; in that of “QVQLVESGGGLVQAGGSLRLSCAASGNIFVINAMGWYRQAPGKERELVAAINWTGGNTYYADSVKGRFTISRDNAKNTFYLQMNSLKPEDTAVYYSAADRRWFVWGLGYWGQGTQVTVSS”, “low polyreactivity”.
For the sequence “QVQLVESGGGLVQAGGSLRLSCAASGGTFYRYAMGWYRQAPGNERELVAAISSSGGRTYYADSVKGRFTISRDNAKNTVYVQMNSLKPEDTAVYYCNARYPRLHRTYNYWGQGTQVTVSS”, the “polyreactivity (PSR sort gate)” value is listed as “high polyreactivity”.
In the case of “QVQLVESGGGLVQAGGSLRLSCAASGITLWQSAKGWYRQAPGKERELVAGITDTGDSTYYADSVKGRFTISRDNAKNTVYLQMNSLKPEDTAVYYCAVPRSALLRAPYELYSWGQGTQVTVSS” it was “low polyreactivity”; in that of “QVQLVESGGGLVQAGGSLRLSCAASGSTFSYYTMGWYRQAPGKERELVAAITRRGDSTYADSVKGRFTISRDNAKTTVYLQMNSLKPEDTAVYYCAADASVGVSGMDYWGQGSQVTVSS”, “low polyreactivity”; in that of “QVQLVESGGGLVQAGGSLRLSCAASGSIFADYAMGWYRQAPGKERELVAAITSGGSTYYADSVKGRFTISRDNAKNTVYLQKNSLKPEDTAVYYCAADWAFSRFAYQTDIYEYWGQGTQVTVSS”, “low polyreactivity”.
The entry for “QVQLVESGGGLVQAGGSLRLICAASGRTFAINTMGWYRQAPGKERELVATISGSAGNTYYADSVKGRFTISRDNAKNTVYVQMNSLKPEDSAVYSCAARQRKARQIVLLDYWGQGTQVTVSS” is “high polyreactivity”; for “QVQLVESVGGLVQAGGSLRLSCAATGSIFSYYAMGWYRQAPGKERELVAAISVSGGRTYYADSVNGRFTISRDNAKNTVYLQMNSLKPEDTAVYYCATRIRSYYYWGQGTQVTVSS” it is “high polyreactivity”.
In the case of “QVQLVESGGGLVQAGGSLRLSCAASGITSRLYAMGWYRQAPGKERELVAAINSIDGSTNYADSVKGRFTISRDNAKNTVYLQMNSLKPEDTAVYYCNKRYGYTGFSPRYDYWGQGTQVTVSS” it was “low polyreactivity”.
Take “QVQLVESGGGLVQAGGSLRLSCAASGLTIASYVMGWYRQAPGKERELVAAISSSGDSTYYADSVKGRFTISRDNAKNTVYLQMNSLKPEDTAVYYCAAKDSVWGQGTQVTVSS”: the “polyreactivity (PSR sort gate)” value is “low polyreactivity”.
For “QVQIVESGGGLVQAGGSLRLSCAASGGILYYYVMGWYRQAPGKERELVADISRGGSTNYADSVKGRFTISRDNAKNTVYFQMNSLKPEDTAVYYCADQDGLKQYTFDYWGQGTQVSVSS”, the “polyreactivity (PSR sort gate)” value was “low polyreactivity”.
With “QVQLQESGGGLVQAGGCLRLSCAASGTIFDPDYMVWYHQAPGKERELVASISLGRMTYYADSVKGRFTINRDNAKNTVYVQMNTLKPEDTAVYYCAVRVETIYYYSYWGQGTQVTVSS”, the “polyreactivity (PSR sort gate)” value is “high polyreactivity”.
As to “QYQLVESGGGLVQAGGSLRLICAASGRIINKKAMGRYRHAPGKERELVAAITSSGGSTYYADSVKGRFTISRDNAKNTVYLQMNSLKPEDTAVYYCAAYAYGRFGKLNYWGQGTQVTVSS”, the “polyreactivity (PSR sort gate)” value is reported as “low polyreactivity”.
Regarding “QVQLVESGGGLVQAGGSLRLSCAASGSIFEPYTMGWYRQAPGKERELVAAITGSGGSTFYADSVKGRFTISRDNAKNTVYLQMNSLKPEDTAVYYCNAYAYPYTDVDYWGQGTQVTVSS”, the “polyreactivity (PSR sort gate)” value is listed as “low polyreactivity”.
The entry for “QGQLVESGGGLVQAGGSLLLICAASGGTFLTYAMGWYRQAPGKERELVAAITSGGSTKYADSVKGRFTISRDNAKNTVYLQMNSLKPEDTAVYYCAADSVRDYVLWWAYSRSDYWGQGTQVTVSS” is “low polyreactivity”.
As to “QVQLVESGGGLVQAGGSLRLSCAASGFTFVNYAMGWYRQAPGKERELVAAIRRSGSRTYYADSVKGRFTISRDNAKNTVYLQINSLKPEDTAVYYCGAVCYRLYGYWGQGTQVTVSS”, the “polyreactivity (PSR sort gate)” value is listed as “low polyreactivity”.
In the case of “QVQLVESGGGLVQAGCILRLSCASSGIIFSYAMGWYRQAPGKESELVAAISGRDGSTYYADSVKGRFTISRDNAKNTVYLQMNSLKPEDTAVYYCAKRISYLPVEMDYWGHGTQVTVSS” it was “low polyreactivity”; in that of “QVQLVESGGGLVQAAGSLRLSCAASGSIFVSYAMGWYRPAPWKEREFVATINYSGGSSYYADSVKGRFTISRDNAKNTVYLQMNSLKPEDTAVYYCAARPYHHGYWLNYGYWGQGTQVTVSS”, “high polyreactivity”.
The entry for “QVQLVESGGGLVQAGGSLRLSCAASGSTFAGFTMRWYRQAPGKERELVAAITTRGGRTYYADSVKGRFTISRDNAKNTVYLQMNSLKPEDTAVYYCAAVSRYYAELMYYWGQGTQVTVSS” is “high polyreactivity”; for “QVQLVESGGGLVQAGGSLRLSCAASGSIFVIYAMGWYRQAPGKERELVAAISRSGGRTYYADSVKGRFTISRDNAKNTVYLQMNSLKPEDTAVYYCAAEGSTYQGAPGVYYWGQGTQVTVSS” it is “high polyreactivity”; for “QVQLVESGGGLVQAGGSLRLSCAASGIIYGNVMGWYRQAPGKESELVAAITGSGGSTYYADSVKGRFTISRDNAKNTVYLQMNSLKPEDTAVYYCAADLALYNTLYLTLPDYYWGEGTQVTVSS” it is “low polyreactivity”.
On to “QVQLVESGGGLVQAGGSLRLSCAASGSIFGLYAMGWYRPAPGKEREFVATISKSGVSTYYADSVKGRFTISRDNAKNTVYLQMNSLKPEDTALYYCNADISRDNDFDYWGQGTQVTVSS”, for which the “polyreactivity (PSR sort gate)” value is “low polyreactivity”.
For “QDQLVESGGGLVQAGGSLRLSCAASGPIFYPYVMGWYRQAPGKERELVAAISDSTGSTYYADSVKGRFTISRDNAKNTVYLQMNSLKPEDTAVYYWGQGTQVTVSS”, the “polyreactivity (PSR sort gate)” value was “low polyreactivity”.
As to “QLQLVESGGGLVQAGGSLRLSCAASGRIFYPYAMGWYRQAPGKERELVPAIDYSDGNSYYADSVKGRFTISRDNAKNTVYLQMNSLKPEDTAVYYWAVEYTGAWIGVWYDYWGQGTQVTVSS”, the “polyreactivity (PSR sort gate)” value was “high polyreactivity”.
The entry for “QVQLVESGGGLVQAGGSLRLSCAASGRIFPVNAMGWYRQAPGKEREFVARISRRGGSTYYADSVKGRFTISRDYEKNTVYLQMNSLKPEDTAVYYCAAVSSRYSYDYWGQGTQVTVSS” is “high polyreactivity”.
In the case of “QVHLVESGGGLVQAGGSLRLSCAASGSTIYYNAMGRYRQAHGKERELVPRISRSGGSTYADSVKGRFTISRDNANNTVYLQMNSLKPEDTAVYYCNADPWWRFDYWGQGTQVTVSS”, the “polyreactivity (PSR sort gate)” value is given as “low polyreactivity”.
In the case of “QVQLVESGGGLVQAGGSLRLSCAASGRTLYWYAMGWYRQAPGKEREFVAAITWRGGSTSYADSVKGRFTISRDNAKNTVYLQMNSLKPEDTAVYYCAASSFRSYYSGKYDYWGQGTQVTVSS” it was “high polyreactivity”; in that of “QVQLVESGGGLVQAGGSFRLSCAASGGTVDTYVMGWYRQAPGKERELVAVITRGASTYYADSVKGRFTISRDNAKNTVYLQMNSLKPEDTAVYYCAAACYSPDYYRFWYSFDYWGQGTQVTVSS”, “low polyreactivity”; in that of “QDQHVETGGGLVQAGGSLRLSCAASGSIFFLYMGWYRKAHGKETELVATISSGGSTNYADSVMGRFTISRDNAKHTVYLQMNSLKPVATAVYYFNARGSERLDTYSLYDYWGQGTQVTVSS”, “low polyreactivity”.
In the case of “QVQLVESGGGLVQAGGSLRLSCAASGRTFVNYTMGWYRQAPGKERELVAAVSWTGGRTYYADSVKGRFTISRDNAKNTVYLQMNSLKPEDTAVYYCATQPEKSGRPAIDPELYDYWGQGTQVTVSS”, the “polyreactivity (PSR sort gate)” value was “low polyreactivity”.
The entry for “QVQLVESGGGLVQAGGSLRLSCAASGSTFYYYAMGWYRQAPGKERELVATITSTGRTNYADSVKGRFTISRDNAKNTVYLQMNSLKPEDTAVYYCAALRRIQRPEYGYWGQGTQVTVSS” is “low polyreactivity”; for “QVQLVESGGGLVQAGGSLRLSCAASGRIFYPNAMGWYRQAPGKERELVAGISSGGSTYYADSVKGRFTISRDNAKNTVYLQMNSLKPEDTAVYYCAARVYAHTSRRFLKYDYWGQGTQVTVSS” it is “high polyreactivity”; for “QVQLEESGGGLVQAGGSLRLSCAASGSIFARNAMGWYRQAPGNERELVAAISTGGGSTYYADSVKGRFTISRDNAKNSVYLQMKSLKPEDTAVYYCNAGDTQIRFYYWGQGTQVSVSS” it is “low polyreactivity”.
